Reference: PMC3899027
Values joined by “and” are separate entries in the source; they are usually repeats but may differ in a detail not shown here. Identical values can stand only once.

Key:
AgR (Rhizobium NT-26) = assay: SEC; Superose 6; 50 mM Tris-HCl pH 8.0, 30-500 mM NaCl, 1 mM βME; peak positions invariant irrespective of loading concentrations
[1] = biological target: BphP1 kinase core (BphP1-HK, residues 462-703) (Rhizobium NT-26); assay: as above
[2] = biological target: ExsG (wild-type, full-length) (Rhizobium NT-26); assay: AUC; sedimentation velocity; 50 mM Tris-HCl pH 8.0, 250 mM or 30 mM NaCl; seven concentrations 0.2-2 mg/ml; 40,000 rpm, 20°C; c(s) in SEDFIT
[3] = biological target: ExsG (wild-type, full-length) (Rhizobium NT-26); assay: AUC; sedimentation equilibrium; 50 mM Tris-HCl pH 8.0, 250 mM NaCl; six concentrations 0.1-1.5 mg/ml; 7, 11, 16, 24 krpm, 20°C; SEDFIT and SEDPHAT
[4] = biological target: ExsG (wild-type, full-length) (Rhizobium NT-26); assay: native MS; nESI-MS at raised ionic strength: 400, 600 and 800 mM ammonium acetate pH 8, 0.1 mM DTT; 30-40 μM (monomer); disassembly of the hexamer
[5] = biological target: ExsG (wild-type, full-length) (Rhizobium NT-26); assay: native MS; nESI-MS and IM-MS; 150 mM ammonium acetate pH 8, 0.1 mM DTT; 30-40 μM (monomer); native, phosphoramidate-treated or AMP-PNP-treated samples
[6] = biological target: ExsG (wild-type, full-length) (Rhizobium NT-26); assay: as above; remark: listed apart in the source
[7] = biological target: ExsG phosphorylated on Asp62 by phosphoramidate (Rhizobium NT-26); assay: as above
[8] = biological target: ExsG receiver domain (ExsG-REC, residues 1-129) (Rhizobium NT-26); assay: SEC; Superose 6; 50 mM Tris-HCl pH 8.0, 30-500 mM NaCl, 1 mM βME; peak positions invariant irrespective of loading concentrations

For AgR (natural protein), the stoichiometry N (AgR (Rhizobium NT-26)) was 2.

“BphP1 kinase core (BphP1-HK, residues 462-703) (domain or fragment)” gave a stoichiometry N [1] of 2.

In the case of ExsG (wild-type, full-length) (enzyme), the stoichiometry N [2] is reported as 6, the stoichiometry N [3] is reported as 6 and the stoichiometry N [4] is reported as 2 and 4. For the same substance, the stoichiometry N [5] was 6 and the stoichiometry N [6] was 2.

Substance “ExsG phosphorylated on Asp62 by phosphoramidate (enzyme)” has a stoichiometry N [7] of 6.

In the case of “ExsG receiver domain (ExsG-REC, residues 1-129) (domain or fragment)”, the stoichiometry N [8] is reported as 2.
